Source: paper PMC4262734

Biological target: HA-Cdk2 (UniProt P24941)
Experiment: co-IP; HeLa cells co-overexpressing wild-type or mutant Flag-p27Xic1 with HA-Cdk2; binding quantified against wild type (mean ± SEM)

Row | increase of binding against wild-type p27Xic1 | reduction of binding against wild-type p27Xic1 | Substance
1 | 140% | – | Flag-p27Xic1 T68A (natural protein)
2 | – | 50% | Flag-p27Xic1 T68E (natural protein)
